T1: PEDV nsp12 (porcine epidemic diarrhea virus (PEDV), UniProt P0C6Y4)
T1 sequence: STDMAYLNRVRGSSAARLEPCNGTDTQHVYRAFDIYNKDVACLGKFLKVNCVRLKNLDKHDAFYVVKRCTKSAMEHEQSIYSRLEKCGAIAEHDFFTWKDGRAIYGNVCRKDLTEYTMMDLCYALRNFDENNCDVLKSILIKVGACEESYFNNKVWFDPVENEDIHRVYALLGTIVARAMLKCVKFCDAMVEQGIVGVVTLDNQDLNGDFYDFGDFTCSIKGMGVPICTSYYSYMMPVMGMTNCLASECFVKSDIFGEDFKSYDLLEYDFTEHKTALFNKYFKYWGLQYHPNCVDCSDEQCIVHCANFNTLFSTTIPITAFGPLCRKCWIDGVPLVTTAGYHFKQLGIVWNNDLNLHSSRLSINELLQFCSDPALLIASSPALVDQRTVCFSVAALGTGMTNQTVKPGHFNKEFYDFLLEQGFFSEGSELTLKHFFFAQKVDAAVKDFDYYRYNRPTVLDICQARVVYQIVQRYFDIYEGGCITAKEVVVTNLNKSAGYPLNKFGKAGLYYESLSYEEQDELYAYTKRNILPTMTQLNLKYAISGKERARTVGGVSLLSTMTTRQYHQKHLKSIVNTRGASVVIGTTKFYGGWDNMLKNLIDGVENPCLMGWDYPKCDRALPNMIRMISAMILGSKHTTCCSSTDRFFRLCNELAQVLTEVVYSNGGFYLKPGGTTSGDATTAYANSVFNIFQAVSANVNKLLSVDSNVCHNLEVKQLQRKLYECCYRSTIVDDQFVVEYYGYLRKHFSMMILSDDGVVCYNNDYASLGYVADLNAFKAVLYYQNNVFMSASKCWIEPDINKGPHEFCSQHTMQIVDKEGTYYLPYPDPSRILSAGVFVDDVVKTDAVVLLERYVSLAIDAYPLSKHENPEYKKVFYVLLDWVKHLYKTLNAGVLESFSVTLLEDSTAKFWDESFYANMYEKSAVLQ


Key:
[1] = biological target: PEDV nsp12-A382R (porcine epidemic diarrhea virus (PEDV)); experiment: native MS
PEDV nsp12 = biological target: T1, PEDV nsp12; experiment: native MS
[2] = biological target: PEDV nsp12 (RdRp);PEDV nsp7;PEDV nsp8 (Porcine epidemic diarrhea virus …, UniProt P0C6Y4;P0C6Y4;P0C6Y4 4101-5027;3580-3662;3663-3857, ||); experiment: native mass spectrometry

Row | Molecule | stoichiometry N (PEDV nsp12) | other results
1 | PEDV nsp12-A382R (enzyme) | – | stoichiometry N [1]: 2
2 | PEDV nsp7 (natural protein) SKLTDIKCSNVVLLGCLSSMNVSANSTEWAYCVDLHNKINLCNDPEKAQEMLLALLAFFLSKNSAFGLDDLLESYFNDNSMLQ | 1 | –
3 | PEDV nsp8 (natural protein) SVASTYVGLPSYVIYENARQQYEDAVNNGSPPQLVKQLRHAMNVAKSEFDREASTQRKLDRMAEQAAAQMYKEARAVNRKSKVVSAMHSLLFGMLRRLDMSSVDTILNLAKDGVVPLSVIPAVSATKLNIVTSDIDSYNRIQREGCVHYAGTIWNIIDIKDNDGKVVHVKEVTAQNAESLSWPLVLGCERIVKLQ | 2 | –
4 | Pair 1 primer/template RNA (short) (dsRNA) RNA 1: CAUUCUCCUAAGAAGCUAUUAAAAUCACA RNA 2: AAAAAGGGUUGUGAUUUUAAUAGCUUCUUAGGAGAAUG | – | binding result [2]: binds

From article PMC11162792 (Nucleic Acids Research, 2023)
